Experimental findings from US20240374671A1 (ACCELERON PHARMA, published 2024) are described below.

Experiment [1] addresses T1, monomeric hActRIIA (human, UniProt P27037 21-138, limits assumed).
T1 construct: also called ActRIIA MONOMER; ActRIIA monomer
As to the kind of experiment: SPR (Biacore), 37 C, mAb captured on anti-hFc chip, receptor injected. The method, then: (§1) Kinetic characterization of A01 antibody lineage (A01 (naïve parent), B01, C01, D01, E01 and F01) binding to monomeric and dimeric hActRIIB and hActRIIA was performed using standard BIACORE®-based analysis at 37° C. In brief, antibodies were captured on anti-hFcIgG Biacore chips and different concentrations of dimeric and monomeric ActRIIB or ActRIIA were injected in duplicates over the captured antibody and control surface. To obtain kinetic rate constants the data were double referenced and fit to a 1:1 interaction model using BiaEvaluation software (GE Healthcare). The equilibrium binding constant KD was determined by the ratio of binding rate constants kd/kₐ

In experiment [2] the target is T2, dimeric hActRIIA (human, UniProt P27037 21-138).
T2 construct: also called ActRIIA DIMER; ActRIIA dimer
The experiment is described as above. The method, then:
as §1

For experiment [3], the target named is T3, monomeric hActRIIB (human, UniProt Q13705 25-130, limits assumed).
T3 construct: also called ActRIIB MONOMER; ActRIIB monomer
T3 sequence: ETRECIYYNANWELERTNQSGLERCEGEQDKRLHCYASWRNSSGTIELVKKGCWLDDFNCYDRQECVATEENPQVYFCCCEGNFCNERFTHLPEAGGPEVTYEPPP
As to the kind of experiment: SPR (Biacore), 37 C, mAb captured on anti-hFc chip, receptor injected, 1:1 fit. The procedure:
as §1
(In general: In SPR one partner is held on a chip, and binding of the other changes the refractive index at the surface.)

Experiment [4] addresses T4, dimeric hActRIIB (human, UniProt Q13705 25-130).
T4 construct: also called ActRIIB DIMER; ActRIIB dimer
T4 sequence: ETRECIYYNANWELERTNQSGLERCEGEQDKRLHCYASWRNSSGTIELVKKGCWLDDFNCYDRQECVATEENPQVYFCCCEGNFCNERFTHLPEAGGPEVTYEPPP
Described as above. The procedure: as §1

In experiment [5] the target is T3, monomeric hActRIIB. Description: SPR (Biacore), 37 C.
The target in experiment [6] is T4, dimeric hActRIIB. As to the kind of experiment: SPR (Biacore), 37 C.
In experiment [7] the target is T1, monomeric hActRIIA. As to the kind of experiment: SPR (Biacore), 37 C.
Experiment [8] has as its target T2, dimeric hActRIIA. Description: SPR (Biacore), 37 C.

T1 sequence (P27037 21-138 limits assumed): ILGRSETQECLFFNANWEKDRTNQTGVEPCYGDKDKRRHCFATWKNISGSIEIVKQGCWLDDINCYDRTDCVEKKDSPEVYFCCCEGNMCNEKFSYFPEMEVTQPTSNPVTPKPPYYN
T2 sequence (P27037 21-138): as the sequence (P27037 21-138 limits assumed) above

B1: D01 (antibody, human IgG1, kappa, V domains shown)
VH: QVQLQESGPGLVKPSQTLSLTCTVSGGSIESGGYYWSWIRQHPGKGLEWIGGIYGSGSTYYNPSLKSRVTISVDTSKNQFSLKLSSVTAADTAVYYCARDSGIGYSYASSHGYYYYMDVWGKGTTVTVSS
VL: EIVLTQSPATLSVSPGERATLSCRASQSVGSNLAWYQQKPGQAPRLLIYGASTRATGIPARFSGSGSGTEFTLTISSLQSEDFAVYYCQQYFHFPLTFGGGTKVEIKR
notes: Human IgG
Take B1: the binding result in the experiment with monomeric hActRIIA [1] and in the experiment with dimeric hActRIIA [2] was “no binding” throughout. In addition, the values for the Kd in the experiment with monomeric hActRIIB [3] and with dimeric hActRIIB [4] were 2.19 nM and 0.302 nM, respectively. The values for the koff with monomeric hActRIIB [3] and in the experiment with dimeric hActRIIB [4] were 0.00354 s⁻¹ and 0.00025 s⁻¹, respectively. Also, the on-rate (kon) (as a rule, a measure of how fast the partners come together) was determined as 1.61e+06 M⁻¹ s⁻¹ in the experiment with monomeric hActRIIB [3] and 828000 M⁻¹ s⁻¹ in the experiment with dimeric hActRIIB [4].

B2: E01 (antibody, human IgG1, kappa, V domains shown)
VH: QVQLQESGPGLVKPSQTLSLTCTVSGGSIGSGGYYWSWIRQHPGKGLEWIGGIYGSGSTYYNPSLKSRVTISVDTSKNQFSLKLSSVTAADTAVYYCARDSGIGYSYASSHGYYYYMDVWGKGTTVTVSS
VL: EIVLTQSPATLSVSPGERATLSCRASQSVGSNLAWYQQKPGQAPRLLIYGASTRATGIPARFSGSGSGTEFTLTISSLQSEDFAVYYCQQYFHFPLTFGGGTKVEIKR
notes: Human IgG
With B2, in the experiment with monomeric hActRIIA [1], the binding result is listed as “no binding”. Further, the binding result with dimeric hActRIIA [2] is “no binding”. In addition, in the experiment with monomeric hActRIIB [3], the affinity, expressed as Kd, was 2.45 nM; the off-rate (koff) (in general, the rate constant with which the complex falls apart) is 0.00415 s⁻¹; the on-rate (kon) came out at 1.7e+06 M⁻¹ s⁻¹. In the experiment with dimeric hActRIIB [4], the Kd (in general, the equilibrium constant for the complex coming apart) was found to be 0.376 nM; the dissociation rate constant (koff) was found to be 0.000292 s⁻¹; the association rate constant (kon) came out at 777000 M⁻¹ s⁻¹.

B3: F01 (antibody, human IgG1, kappa, V domains shown)
VH: QVQLQESGPGLVKPSQTLSLTCTVSGGSIKSGGYYWSWIRQHPGKGLEWIGGIYPSGSTYYNPSLKSRVTISVDTSKNQFSLKLSSVTAADTAVYYCARDSGIGYSYASSHGYYYYMDVWGKGTTVTVSS
VL: EIVLTQSPATLSVSPGERATLSCRASQSVGSNLAWYQQKPGQAPRLLIYGASTRATGIPARFSGSGSGTEFTLTISSLQSEDFAVYYCQQYFHFPLTFGGGTKVEIKR
notes: Human IgG
For B3, the binding result with monomeric hActRIIA [1] and with dimeric hActRIIA [2] was “no binding” each time. In addition, the Kd in the experiment with monomeric hActRIIB [3] was 3.32 nM; with dimeric hActRIIB [4], 0.36 nM. Besides, the dissociation rate constant (koff) in the experiment with monomeric hActRIIB [3] is 0.00444 s⁻¹; in the experiment with dimeric hActRIIB [4], 0.000216 s⁻¹. The association rate constant (kon) with monomeric hActRIIB [3] worked out at 1.34e+06 M⁻¹ s⁻¹; with dimeric hActRIIB [4], 601000 M⁻¹ s⁻¹.

B4: C01 (antibody, human IgG1, kappa, V domains shown)
VH: QVQLQESGPGLVKPSQTLSLTCTVSGGSISSGGYFWSWIRQHPGKGLEWIGGIYYSGRTYYNPSLKSRVTISVDTSKNQFSLKLSSVTAADTAVYYCARDSGIGYSYASSHGYYYYMDVWGKGTTVTVSS
VL: EIVLTQSPATLSVSPGERATLSCRASQSVGSNLAWYQQKPGQAPRLLIYGASTRATGIPARFSGSGSGTEFTLTISSLQSEDFAVYYCQQYFHFPLTFGGGTKVEIKR
notes: Human IgG
As for B4, the binding result with monomeric hActRIIA [1] was “no binding”. Further, the binding result in the experiment with dimeric hActRIIA [2] is reported as “no binding”. In the experiment with monomeric hActRIIB [3], this molecule came in with an equilibrium dissociation constant (Kd) of 5.22 nM, a koff of 0.00712 s⁻¹ and a kon of 1.37e+06 M⁻¹ s⁻¹. In the experiment with dimeric hActRIIB [4], binding was characterised by a dissociation constant (Kd) of 0.236 nM, the koff turned out to be 0.000188 s⁻¹ and the kon is 797000 M⁻¹ s⁻¹.

B5: D02 (antibody, human IgG1, V domains shown)
VH: QVQLVQSGAEVKKPGASVKVSCKASGYTFTSYRMHWVRQAPGQGLEWMGFIVPSGGSTSYAQKFQGRVTMTRDTSTSTVYMELSSLRSEDTAVYYCARVSMYAPEPMDVWGQGTTVTVSS
VL: DIQMTQSPSSVSASVGDRVTITCRASQGISRWLAWYQQKPGKAPKLLIYAASSLQSGVPSRFSGSGSGTDFTLTISSLQPEDFATYYCQQAFSHPWTFGGGTKVEIK
notes: Human IgG
For B5, the dissociation constant Kd is 0.65 nM with monomeric hActRIIB [5], 0.727 nM in the experiment with dimeric hActRIIB [6], 18.6 nM with monomeric hActRIIA [7] and 0.316 nM with dimeric hActRIIA [8]. The koff is 0.000291 s⁻¹ with monomeric hActRIIB [5], 0.000123 s⁻¹ with dimeric hActRIIB [6], 0.00684 s⁻¹ with monomeric hActRIIA [7] and 0.000106 s⁻¹ with dimeric hActRIIA [8]. In addition, the kon came out at 447000 M⁻¹ s⁻¹ in the experiment with monomeric hActRIIB [5], 170000 M⁻¹ s⁻¹ in the experiment with dimeric hActRIIB [6], 369000 M⁻¹ s⁻¹ with monomeric hActRIIA [7] and 336000 M⁻¹ s⁻¹ with dimeric hActRIIA [8].

B6: A02 (antibody, human IgG1, V domains shown)
VH: QVQLVQSGAEVKKPGASVKVSCKASGYTFTSYGISWVRQAPGQGLEWMGWISPYNGNTNYAQKLQGRVTMTTDTSTSTAYMELRSLRSDDTAVYYCARVSMYAPEPMDVWGQGTTVTVSS
VL: DIQMTQSPSSVSASVGDRVTITCRASQGISRWLAWYQQKPGKAPKLLIYAASSLQSGVPSRFSGSGSGTDFTLTISSLQPEDFATYYCQQAFSHPWTFGGGTKVEIK
notes: Human IgG; also called A02 Parent
In the case of B6, the results for the equilibrium dissociation constant (Kd) with monomeric hActRIIB [5], with dimeric hActRIIB [6] and with dimeric hActRIIA [8] were 22 nM, 0.511 nM and 1.78 nM, respectively. Moreover, the off-rate (koff) in the experiment with monomeric hActRIIB [5] turned out to be 0.0662 s⁻¹; in the experiment with dimeric hActRIIB [6], 0.000112 s⁻¹; in the experiment with dimeric hActRIIA [8], 0.000627 s⁻¹. For the same molecule, the association rate constant (kon) with monomeric hActRIIB [5] is 3.02e+06 M⁻¹ s⁻¹; with dimeric hActRIIB [6], 219000 M⁻¹ s⁻¹; in the experiment with dimeric hActRIIA [8] it was 353000 M⁻¹ s⁻¹.

B7: B02 (antibody, human IgG1, V domains shown)
VH: QVQLVQSGAEVKKPGASVKVSCKASGYTFTGHKMHWVRQAPGQGLEWMGWINPASGWTNYAQKFQGRVTMTRDTSISTAYMELSRLRSDDTAVYYCARVSMYAPEPMDVWGQGTTVTVSS
VL: DIQMTQSPSSVSASVGDRVTITCRASQGISRWLAWYQQKPGKAPKLLIYAASSLQSGVPSRFSGSGSGTDFTLTISSLQPEDFATYYCQQAFSHPWTFGGGTKVEIK
notes: Human IgG
Take B7: the Kd in the experiment with monomeric hActRIIB [5] was 1.1 nM; with dimeric hActRIIB [6], 0.649 nM; with monomeric hActRIIA [7] it was 8.13 nM; with dimeric hActRIIA [8], 0.338 nM. The koff in the experiment with monomeric hActRIIB [5] came out at 0.001 s⁻¹; with dimeric hActRIIB [6], 0.00021 s⁻¹; in the experiment with monomeric hActRIIA [7], 0.00593 s⁻¹; with dimeric hActRIIA [8], 0.000167 s⁻¹. The on-rate (kon) was 905000 M⁻¹ s⁻¹ in the experiment with monomeric hActRIIB [5], 323000 M⁻¹ s⁻¹ with dimeric hActRIIB [6], 729000 M⁻¹ s⁻¹ with monomeric hActRIIA [7] and 495000 M⁻¹ s⁻¹ in the experiment with dimeric hActRIIA [8].

B8: C02 (antibody, human IgG1, V domains shown)
VH: QVQLVQSGAEVKKPGASVKVSCKASGYTFTSYNMAWVRQAPGQGLEWMGIIRPSVGSTSYAQKFQGRVTMTRDTSTSTVYMELSSLRSEDTAVYYCARVSMYAPEPMDVWGQGTTVTVSS
VL: DIQMTQSPSSVSASVGDRVTITCRASQGISRWLAWYQQKPGKAPKLLIYAASSLQSGVPSRFSGSGSGTDFTLTISSLQPEDFATYYCQQAFSHPWTFGGGTKVEIK
notes: Human IgG
For B8, the Kd with monomeric hActRIIB [5] came to 0.528 nM; with dimeric hActRIIB [6], 0.333 nM; with monomeric hActRIIA [7] it was 26.4 nM; with dimeric hActRIIA [8], 0.153 nM. Besides, the dissociation rate constant (koff) with monomeric hActRIIB [5] worked out at 0.000515 s⁻¹; with dimeric hActRIIB [6], 9.64e-05 s⁻¹; in the experiment with dimeric hActRIIA [8], 8.02e-05 s⁻¹. Also, the kon in the experiment with monomeric hActRIIB [5] came to 975000 M⁻¹ s⁻¹; with dimeric hActRIIB [6], 289000 M⁻¹ s⁻¹; with dimeric hActRIIA [8], 524000 M⁻¹ s⁻¹.

B9: D03 (antibody, human IgG1)
heavy: not shown
light: DIQMTQSPSSVSASVGDRVTITCRASQGISRWLAWYQQKPGKAPKLLIYAASSLQSGVPSRFSGSGSGTDFTLTISSLQPEDFATYYCQQAFSHPWTFGGGTKVEIK
notes: Human IgG
Consider B9, for which, in the experiment with monomeric hActRIIB [5], binding was characterised by a dissociation constant (Kd) of 0.194 nM, the off-rate constant (koff) was 0.000203 s⁻¹ and the association rate constant (kon) was 1.05e+06 M⁻¹ s⁻¹. In the experiment with dimeric hActRIIB [6], the Kd is 0.0226 nM, the off-rate constant (koff) amounted to 1.04e-05 s⁻¹ and the on-rate constant (kon) came to 459000 M⁻¹ s⁻¹.
